What was measured:
[1] = substrate: CSCC[C@H](N)C(=O)O; assay: HPLC (SCX column) detection of SAM formed; assay type: biochemical, Thermococcus kodakarensis; details: co-substrate ATP (10 mM in standard assay), 0.1 M Tris-HCl, 0.02 M MgCl2, 0.2 M KCl, pH 8.0, 37 °C
From the text: (§1) HPLC (SCX column) detection of SAM formed on TkMAT

[2] = substrate: Nc1ncnc2c1ncn2[C@@H]1O[C@H](COP(=O)(O)OP(=O)(O)OP(=O)(O)O)[C@@H](O)[C@H]1O; assay: HPLC (SCX column) detection of SAM formed; assay type: biochemical, Thermococcus kodakarensis; details: co-substrate L-methionine (10 mM in standard assay), 0.1 M Tris-HCl, 0.02 M MgCl2, 0.2 M KCl, pH 8.0, 37 °C
From the text: as §1

[3] = target: the molecule itself; assay: SEC; Superdex 200 prep grade, XK 16/70 column; 2 mL of 5 mg/mL protein; 40 mM Tris-HCl, 150 mM NaCl, pH 8.0; 1 mL/min; column calibrated with proteins of known size

B1: methionine adenosyltransferase from Thermococcus kodakarensis (enzyme, UniProt Q5JF22 1-405, looked up)
chain: MAGKVRNIVVEELVRTPVEMQKVELVERKGIGHPDSIADGIAEAVSRALSREYVKRYGIILHHNTDQVEVVGGRAYPQFGGGEVIKPIYILLSGRAVEMVDREFFPVHEIALKAAKDYLRKAVRHLDLEHHVIIDSRIGQGSVDLVGVFNKAKKNPIPLANDTSFGVGYAPLSETEKIVLETEKYLNSDEFKKKYPAVGEDIKVMGLRKGDEIDLTIAAAIVDSEVDNPDDYMAVKEAIYEAAKGIVESHTERPTNIYVNTADDPKEGIYYITVTGTSAEAGDDGSVGRGNRVNGLITPNRHMSMEAAAGKNPVSHVGKIYNILSMLIANDIAEQVEGVEEVYVRILSQIGKPIDEPLVASVQIIPKKGYSIDVLQKPAYEIADEWLANITKIQKMILEDKVNVF
notes: methionine adenosyltransferase (S-adenosylmethionine synthase) of Thermococcus kodakarensis, gene cloned from genomic DNA into pET28a(+); the printed gene length (1155 bp) and primers may not fit this gene; Homodimer in solution by size exclusion chromatography; No removal of the His-tag is described; also called TkMAT; MAT
Km [1]: 0.31 ± 0.07 mM
Km [2]: 6.54 ± 2.49 mM
stoichiometry N [3]: 2
